In this experiment the target is lymphotoxin beta receptor on the surface of HT29 cells (human) (UniProt P36941). In words: cell-based or functional assay.
Sequence of lymphotoxin beta receptor on the surface of HT29 cells (human) (P36941 31-435): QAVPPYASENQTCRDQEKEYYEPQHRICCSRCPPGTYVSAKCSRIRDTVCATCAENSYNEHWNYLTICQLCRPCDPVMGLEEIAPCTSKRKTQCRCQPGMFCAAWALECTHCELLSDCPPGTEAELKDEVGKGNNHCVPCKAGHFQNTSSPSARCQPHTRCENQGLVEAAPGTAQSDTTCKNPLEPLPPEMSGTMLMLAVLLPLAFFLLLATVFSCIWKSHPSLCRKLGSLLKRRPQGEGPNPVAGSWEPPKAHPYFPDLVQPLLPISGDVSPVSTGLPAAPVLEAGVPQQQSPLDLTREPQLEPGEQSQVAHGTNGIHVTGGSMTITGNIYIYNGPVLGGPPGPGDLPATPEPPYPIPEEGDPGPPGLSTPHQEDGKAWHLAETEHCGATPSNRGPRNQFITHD

Turning to humanized BHA10 antibody, the minimum A450 (plateau of HT29 cell growth, MTT, with interferon gamma) was 0.9 A450.
The substance humanized CBE11 antibody had a minimum A450 (plateau of HT29 cell growth, MTT, with interferon gamma) of 0.8 A450.
